For data set [1], the system named is T1, pro-transglutaminase derived from S. mobaraense IFO13819 (transglutaminase having the pro-structure part).
T1 sequence: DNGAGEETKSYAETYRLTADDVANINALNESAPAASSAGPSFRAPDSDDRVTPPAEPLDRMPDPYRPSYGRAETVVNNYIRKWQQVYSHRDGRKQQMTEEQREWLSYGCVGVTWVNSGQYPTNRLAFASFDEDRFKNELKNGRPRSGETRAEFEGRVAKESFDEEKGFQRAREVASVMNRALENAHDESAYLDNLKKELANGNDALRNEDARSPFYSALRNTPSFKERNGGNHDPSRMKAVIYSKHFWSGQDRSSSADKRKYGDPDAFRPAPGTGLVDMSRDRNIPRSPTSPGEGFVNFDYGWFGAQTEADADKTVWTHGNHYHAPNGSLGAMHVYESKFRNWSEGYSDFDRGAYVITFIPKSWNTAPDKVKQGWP

Another data set has as its target T2, Suc-AAPF-pNA.
T2 chain: AAPF

The target of a further data set is T3, AP-pNA.
T3 chain: AP

Another data set addresses T4, Bz-FVR-pNA.
T4 chain: FVR

The target of a further data set is T5, RP-pNA.
T5 chain: RP

The target of a further data set is T6, Z-GAP-βNA.
T6 chain: GAP

In a further data set the target is T7, AAPL-pNA.
T7 chain: AAPL

The next data set deals with T8, FRAP-pNA.
T8 chain: FRAX

Another data set deals with T9, GP-βNA.
T9 chain: GP

For a further data set, the target named is T10, PSFRAP-pNA.
T10 chain: PSFRAP

The next data set concerns the target T11, AFP-pNA.
T11 chain: AFP

In a further data set the target is T12, DP-pNA.
T12 chain: DP

Data set [2] addresses T13, pro-transglutaminase derived from S. mobaraense IFO13819 (transglutaminase having the pro-structure part).
T13 chain: T1 sequence

The target of a further data set is T14, SFRAP-pNA.
T14 chain: SFRAP

A further data set concerns the target T15, AAF-pNA.
T15 chain: AAF

The next data set addresses T16, Z-AGP-βNA.
T16 chain: AGP

Another data set concerns the target T17, AAA-pNA.
T17 chain: AAA

Another data set concerns the target T18, AAP-pNA.
T18 chain: AAP

For a further data set, the target named is T19, Z-GP-βNA.
T19 chain: GP

Regarding Dispase (Boeringer Manheim Co. Ltd.), the “cleavage of the pro-transglutaminases by Dispase digestion (SDS-PAGE)” value in data set [1] is on record as “the cleavage of the pro-transglutaminases was confirmed by SDS-PAGE”.

B1: proline specific peptidase (svPEP) produced by S. mobaraense IFO13819 (protein)
chain: QADIKDRILKIPGMKFVEEKPYQGYRYLVMTYRQPVDHRNPGKGTFEQRFTLLHKDTDRPTVFFTSGYNVSTNPSRSEPTRIVDGNQVSMEYRFFTPSRPQPADWSKLDIWQAASDQHRLYQALKPVYGKNWLATGGSKGGMTATYFRRFYPNDMNGTVAYVAPNDVNDKEDSAYDKFFQNVGDKACRTQLNSVQREALVRRDEIVARYEKWAKENGKTFKVVGSADKAYENVVLDLVWSFWQYHLQSDCASVPATKASTDELYKFIDDISGFDGYTDQGLERFTPYYYQAGTQLGAPTVKNPHLKGVLRYPGINQPRSYVPRDIPMTFRPGAMADVDRWVREDSRNMLFVYGQNDPWSGEPFRLGKGAAARHDYRFYAPGGNHGSNIAQLVADERAKATAEVLKWAGVAPQAVQKDEKAAKPLAPFDAKLDRVKNDKQSALRP
In the case of B1, the relative activity (%) in the data set with Suc-AAPF-pNA amounted to 0.01%; with AP-pNA, 0.53%; in the data set with Bz-FVR-pNA it was 0.002%; with RP-pNA it was 0.94%; in the data set with Z-GAP-βNA, 1.2%; with AAPL-pNA it was 0.3%. Further, the relative activity (%) with FRAP-pNA worked out at 49%; with GP-βNA, 0.4%; with PSFRAP-pNA it was 0.2%; in the data set with AFP-pNA, 26.3%; in the data set with DP-pNA, 0%; in the data set with SFRAP-pNA it was 1.23%. The relative activity (%) in the data set with AAF-pNA was found to be 4.1%; with Z-AGP-βNA, 0.78%; in the data set with AAA-pNA it was 8.5%; in the data set with AAP-pNA it was 100%; in the data set with Z-GP-βNA, 0.04%. Also, the “N-terminal amino acid sequence of the cleaved transglutaminase (SAMP45 and svPEP co-secreted)” value in [2] is reported as “it had the same sequence as the naturally occurring transglutaminase derived from S. mobaraense having Asp as the N-terminal amino acid”.

Source of the values: patent US20030082746.
